# Measured values published in IntAct's records for PubMed 20847002.
# B1: Probable peptidoglycan glycosyltransferase FtsW (Escherichia coli (strain K12)), P0ABG4 (parent)
# chain: MRLSLPRLKMPRLPGFSILVWISTALKGWVMGSREKDTDSLIMYDRTLLWLTFGLAAIGFIMVTSASMPIGQRLTNDPFFFAKRDGVYLILAFILAIITLRLPMEFWQRYSATMLLGSIILLMIVLVVGSSVKGASRWIDLGLLRIQPAELTKLSLFCYIANYLVRKGDEVRNNLRGFLKPMGVILVLAVLLLAQPDLGTVVVLFVTTLAMLFLAGAKLWQFIAIIGMGISAVVLLILAEPYRIRRVTAFWNPWEDPFGSGYQLTQSLMAFGRGELWGQGLGNSVQKLEYLPEAHTDFIFAIIGEELGYVGVVLALLMVFFVAFRAMSIGRKALEIDHRFSGFLACSIGIWFSFQALVNVGAAAGMLPTKGLTLPLISYGGSSLLIMSTAIMMLLRIDYETRLEKAQAFVRGSR
# partner: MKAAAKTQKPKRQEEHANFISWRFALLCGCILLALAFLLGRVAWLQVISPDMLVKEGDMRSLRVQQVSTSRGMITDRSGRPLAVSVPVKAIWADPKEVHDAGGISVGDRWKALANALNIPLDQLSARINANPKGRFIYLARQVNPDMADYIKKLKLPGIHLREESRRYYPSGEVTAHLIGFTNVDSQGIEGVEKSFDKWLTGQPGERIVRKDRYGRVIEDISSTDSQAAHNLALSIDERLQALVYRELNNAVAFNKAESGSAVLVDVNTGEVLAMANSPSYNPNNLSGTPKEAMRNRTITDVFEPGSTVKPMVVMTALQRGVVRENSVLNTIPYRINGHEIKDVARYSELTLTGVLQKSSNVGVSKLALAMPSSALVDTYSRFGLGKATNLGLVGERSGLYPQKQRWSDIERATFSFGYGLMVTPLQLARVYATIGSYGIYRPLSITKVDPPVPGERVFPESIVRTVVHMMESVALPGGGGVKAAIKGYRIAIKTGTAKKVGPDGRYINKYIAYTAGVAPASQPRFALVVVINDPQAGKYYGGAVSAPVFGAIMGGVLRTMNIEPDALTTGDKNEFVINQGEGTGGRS
# B2: Peptidoglycan D,D-transpeptidase FtsI (Escherichia coli (strain K12)), P0AD68 (parent)
# chain: B1 partner
# partner: B1 chain
# B3: Probable peptidoglycan glycosyltransferase FtsW (Escherichia coli (strain K12)), P0ABG4 (parent)
# chain: B1 chain
# partner: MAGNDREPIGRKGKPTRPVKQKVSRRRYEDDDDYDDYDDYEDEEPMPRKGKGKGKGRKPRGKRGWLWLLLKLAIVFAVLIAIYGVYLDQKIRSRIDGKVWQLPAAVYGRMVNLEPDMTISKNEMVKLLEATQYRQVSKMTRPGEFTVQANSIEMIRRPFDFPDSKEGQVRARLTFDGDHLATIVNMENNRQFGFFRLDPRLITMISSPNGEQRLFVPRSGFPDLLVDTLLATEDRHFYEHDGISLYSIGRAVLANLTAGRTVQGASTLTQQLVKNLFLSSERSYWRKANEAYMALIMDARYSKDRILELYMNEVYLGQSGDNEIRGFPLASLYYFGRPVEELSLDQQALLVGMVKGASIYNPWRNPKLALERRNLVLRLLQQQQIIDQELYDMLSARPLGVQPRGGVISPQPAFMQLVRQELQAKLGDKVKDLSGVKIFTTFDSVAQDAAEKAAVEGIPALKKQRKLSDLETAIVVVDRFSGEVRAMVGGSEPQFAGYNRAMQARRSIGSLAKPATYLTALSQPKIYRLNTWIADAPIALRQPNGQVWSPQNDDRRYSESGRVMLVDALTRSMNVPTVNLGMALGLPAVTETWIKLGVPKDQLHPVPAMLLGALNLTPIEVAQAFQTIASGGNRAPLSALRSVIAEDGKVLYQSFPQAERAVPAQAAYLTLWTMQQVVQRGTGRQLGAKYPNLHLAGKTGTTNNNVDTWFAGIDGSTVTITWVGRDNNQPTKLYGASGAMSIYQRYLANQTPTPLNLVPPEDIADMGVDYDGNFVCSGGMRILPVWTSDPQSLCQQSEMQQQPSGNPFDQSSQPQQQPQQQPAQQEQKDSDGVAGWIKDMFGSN
# Variants of: B1
# Conditions: with ftsi_ecoli ftsI
row,Variant,effect of a mutation on the interaction
1,P368A,decreasing interaction
2,P375A,decreasing interaction

# Variants of: B2
# Conditions: with ftsw_ecoli ftsW
row,Variant,effect of a mutation on the interaction
1,R23C,decreasing interaction strength

# Variants of: B3
# Conditions: with pbpb_ecoli mrcB
row,Variant,effect of a mutation on the interaction
1,P368A,decreasing interaction
2,P375A,decreasing interaction
